Experimental data: patent US20110053139A1
Where two headings read alike, the source gives them in different places.

Experiments:
[1] = biological target: Coxsackie virus B4 (JVB strain) viral particles (Coxsackie virus B4 (JVB strain)) (UniProt P08292); assay: SH-SAW biosensor (325 MHz), 204-4 mAb; Coxsackie B4 admixed with HSV-1 at equal concentration, low end of range
[2] = biological target: Coxsackie virus B4 (JVB strain) viral particles (Coxsackie virus B4 (JVB strain)) (UniProt P08292)
[3] = biological target: Coxsackie virus B4 (JVB strain) viral particles (Coxsackie virus B4 (JVB strain)) (UniProt P08292); assay: SH-SAW biosensor (325 MHz), 204-4 mAb; Coxsackie B4 admixed with HSV-1 at equal concentration, high end of range
[4] = biological target: Herpes Simplex virus type 1 (HSV-1), purified virus; assay: SH-SAW biosensor (325 MHz), 204-4 mAb; HSV-1 alone at 3.6×10^6/µl

Chain of UniProt P08292 (P08292 2-849): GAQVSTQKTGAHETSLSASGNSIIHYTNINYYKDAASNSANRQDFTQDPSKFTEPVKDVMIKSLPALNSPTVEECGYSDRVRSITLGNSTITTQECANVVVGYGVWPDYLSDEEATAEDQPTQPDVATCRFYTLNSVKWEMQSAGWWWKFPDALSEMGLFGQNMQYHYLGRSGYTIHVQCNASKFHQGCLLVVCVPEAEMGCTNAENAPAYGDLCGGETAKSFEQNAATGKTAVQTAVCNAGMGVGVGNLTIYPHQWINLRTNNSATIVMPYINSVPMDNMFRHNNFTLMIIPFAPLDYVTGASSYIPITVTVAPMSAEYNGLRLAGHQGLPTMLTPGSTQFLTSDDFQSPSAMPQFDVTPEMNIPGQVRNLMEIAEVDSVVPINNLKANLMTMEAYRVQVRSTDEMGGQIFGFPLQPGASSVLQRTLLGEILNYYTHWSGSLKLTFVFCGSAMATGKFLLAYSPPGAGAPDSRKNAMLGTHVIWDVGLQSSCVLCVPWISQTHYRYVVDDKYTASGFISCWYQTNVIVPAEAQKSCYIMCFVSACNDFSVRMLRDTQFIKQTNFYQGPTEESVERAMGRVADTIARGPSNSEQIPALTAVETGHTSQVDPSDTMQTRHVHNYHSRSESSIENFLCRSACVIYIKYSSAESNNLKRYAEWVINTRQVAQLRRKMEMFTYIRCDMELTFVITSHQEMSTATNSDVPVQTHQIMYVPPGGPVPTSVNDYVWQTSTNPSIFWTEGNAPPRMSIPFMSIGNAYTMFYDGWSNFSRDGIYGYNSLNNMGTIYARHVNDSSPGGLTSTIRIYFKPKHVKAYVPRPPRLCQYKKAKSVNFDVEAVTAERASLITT

## IgG2a isotype monoclonal antibody (mAb) directed against the JVB strain of Coxsackie virus B4, produ
[1]
  phase differential mass shift Δφ: 1.09 degrees
[2]
  phase differential mass shift Δφ: 0.95 to 6.99 degrees
[3]
  phase differential mass shift Δφ: 7.24 degrees
[4]
  phase differential mass shift Δφ: 0.64 degrees
